Laboratory results: patent US20240254182A1 (PROVINCIAL HEALTH SERVICES AUTHORITY, published 2024)
Substitutions are numbered along the chain they refer to.

T1: WT G-CSFR(Ig-CRH), purified, tag cleaved (human, UniProt Q99062 26-331)
T1 construct: also called G-CSFRWT; wild type G-CSFR(Ig-CRH)
T1 chain: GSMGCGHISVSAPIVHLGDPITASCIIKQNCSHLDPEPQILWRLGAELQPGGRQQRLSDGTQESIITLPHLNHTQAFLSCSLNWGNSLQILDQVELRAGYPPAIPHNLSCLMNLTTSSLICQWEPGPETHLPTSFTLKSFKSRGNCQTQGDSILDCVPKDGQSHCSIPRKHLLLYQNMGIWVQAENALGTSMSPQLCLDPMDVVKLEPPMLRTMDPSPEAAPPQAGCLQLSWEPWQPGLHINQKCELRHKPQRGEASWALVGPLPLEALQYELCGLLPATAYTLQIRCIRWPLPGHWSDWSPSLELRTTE

T2: WT G-CSF, purified from insect cells, tag cleaved (human, UniProt P09919 31-206)
T2 construct: protein of the SPR; also called G-CSFWT; wild type G-CSF
T2 sequence: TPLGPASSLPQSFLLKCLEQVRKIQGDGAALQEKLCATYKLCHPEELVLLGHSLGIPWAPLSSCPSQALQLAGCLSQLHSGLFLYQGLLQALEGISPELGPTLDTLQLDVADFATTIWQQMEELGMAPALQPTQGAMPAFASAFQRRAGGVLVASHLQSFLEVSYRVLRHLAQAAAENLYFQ

B1: design 9 G-CSFE, tag cleaved (ligand)
chain: T2 sequence with D104R, L108K, D112R, Q119R, E122K
notes: also called design 9 G-CSFE mutant
B2: design 304 G-CSFR(Ig-CRH)E, tag cleaved (receptor)
chain: SMGCGHISVSAPIVHLGDPITASCIIKQNCSHLDPEPQILWELGAELQPGGRQQRLSDGTQESIITLPHLNHTQAFLSCSLNWGNSLQILDQVKLRAGYPPAIPHNLSCLMNLTTSSLICQWEPGPETHLPTSFTLKSFKSRGNCQTQGDSILDCVPKDGQSHCSIPDKHLLLYQNMGIWVQAENALGTSMSPQLCLDPMDVVKLEPPMLRTMDPSPEAAPPQAGCLQLSWEPWQPGLHINQKCELRHKPQRGEASWALVGPLPLEALQYELCGLLPATAYTLQIRCIRWPLPGHWSDWSPSLELRTTE
B3: design 307 G-CSFR(Ig-CRH)E, tag cleaved (receptor)
chain: B2 chain with K94E, D168R, D198K, D201K, R289E
B4: design 402 G-CSFR(Ig-CRH)E, tag cleaved (receptor)
chain: B2 chain with K94E, D168E, Q175E, R289E
B5: design 303 G-CSFR(Ig-CRH)E, tag cleaved (receptor)
chain: B2 chain with E42R
B6: design 130 G-CSFR(Ig-CRH)E, tag cleaved (receptor)
chain: B2 chain with K94E
notes: also called 130 ECD (Ig-CRH)
B7: design 134 G-CSFR(Ig-CRH)E, tag cleaved (receptor)
chain: B2 chain with K94E, R142E
notes: also called design 137 G-CSFR(Ig-CRH)E
B8: design 117 G-CSFE, tag cleaved (ligand)
chain: T2 sequence with E46R, E122R, E123R
notes: also called design 117 G-CSFE mutant
B9: design 401 G-CSFR(Ig-CRH)E, tag cleaved (receptor)
chain: B2 chain with K94E, R289D
B10: design 300 G-CSFR(Ig-CRH)E, tag cleaved (receptor)
chain: B2 chain with E42R, F76K, Q92K, K94E

How the values were obtained:
[1] = molecular target: T1, WT G-CSFR(Ig-CRH), purified, tag cleaved; assay: SPR, WT G-CSFR(Ig-CRH) amine-coupled, G-CSFE injected, single-cycle kinetics
Description: The SPR binding assays were carried out on a Biacore T200 instrument (GE Healthcare, Mississauga, ON, Canada) with PBS-T (PBS+0.05% (v/v) Tween 20) running buffer at a temperature of 25° C. CM5 Series S sensor chip, Biacore amine coupling kit (NHS, EDC and 1 M ethanolamine), and 10 mM sodium acetate buffers were all purchased from GE Healthcare. PBS running buffer with 0.05% Tween20 (PBS-T) was purchased from Teknova Inc. (Hollister, CA). Designs were assessed in three different immobilization orientations.
To assess binding affinity of G-CSFE to G-CSFRWT, recombinant G-CSFRWT purified as described in Example 5 was captured as described above in this Example. Using single-cycle kinetics, six concentrations of a two-fold dilution series of each G-CSFE mutant starting at […] with a blank buffer control were sequentially injected as described above. The same sample titration was also performed on a reference cell with no variants captured. The G-CSFRWT surface was regenerated as described above.

[2] = molecular target: T2, WT G-CSF, purified from insect cells, …; assay: SPR (Biacore T200), single-cycle kinetics
[3] = molecular target: T2, WT G-CSF, purified from insect cells, …; assay: SPR, single-cycle kinetics

Row | Binder | binding result [2] | binding result [3] | further results
1 | B1 |  |  | KD fold change (against WT:WT) [1]: 79 fold
2 | B2 | no binding |  | 
3 | B3 | no binding |  | 
4 | B4 |  | no binding | 
5 | B5 | no binding |  | 
6 | B6 |  | no binding | 
7 | B7 | no binding |  | 
8 | B8 |  |  | KD fold change (against WT:WT) [1]: 3.4 fold
9 | B9 |  | no binding | 
10 | B10 | no binding |  | 
